In patent US20190233493A1 (Sanofi, published 2019):
*1 amine or outer side, *2 acyl side, *3 side chain or, on linkers, in order; H or OH if unused. Primed or numbered codes have the meaning given here. Side-chain parts run from the residue outwards. [ ]: non-standard residue; d: D form. The star is where a group is joined. PEG2DGA = 2-[2-[3-[2-[2-(3-aminopropoxy)ethoxy]ethoxy]propylamino-2-oxo-ethoxy]acetyl; γGlu = O=C(O)[C@H](CCC(=O)[*:2])N[*:1]; 1Nal = N[C@@H](Cc1cccc2ccccc12)C(=O)O; Stearoyl = CCCCCCCCCCCCCCCCCC(=O)*; Palmitoyl = CCCCCCCCCCCCCCCC(=O)*; Nle = CCCC[C@H](N)C(=O)O; PEG2′ = PEG2 spacer unit; PEG2″ = not defined here; Aib = CC(C)(N)C(=O)O

T1: RXFP1 receptor (UniProt Q9HBX9 1-757, limits assumed)
T1 sequence (looked up): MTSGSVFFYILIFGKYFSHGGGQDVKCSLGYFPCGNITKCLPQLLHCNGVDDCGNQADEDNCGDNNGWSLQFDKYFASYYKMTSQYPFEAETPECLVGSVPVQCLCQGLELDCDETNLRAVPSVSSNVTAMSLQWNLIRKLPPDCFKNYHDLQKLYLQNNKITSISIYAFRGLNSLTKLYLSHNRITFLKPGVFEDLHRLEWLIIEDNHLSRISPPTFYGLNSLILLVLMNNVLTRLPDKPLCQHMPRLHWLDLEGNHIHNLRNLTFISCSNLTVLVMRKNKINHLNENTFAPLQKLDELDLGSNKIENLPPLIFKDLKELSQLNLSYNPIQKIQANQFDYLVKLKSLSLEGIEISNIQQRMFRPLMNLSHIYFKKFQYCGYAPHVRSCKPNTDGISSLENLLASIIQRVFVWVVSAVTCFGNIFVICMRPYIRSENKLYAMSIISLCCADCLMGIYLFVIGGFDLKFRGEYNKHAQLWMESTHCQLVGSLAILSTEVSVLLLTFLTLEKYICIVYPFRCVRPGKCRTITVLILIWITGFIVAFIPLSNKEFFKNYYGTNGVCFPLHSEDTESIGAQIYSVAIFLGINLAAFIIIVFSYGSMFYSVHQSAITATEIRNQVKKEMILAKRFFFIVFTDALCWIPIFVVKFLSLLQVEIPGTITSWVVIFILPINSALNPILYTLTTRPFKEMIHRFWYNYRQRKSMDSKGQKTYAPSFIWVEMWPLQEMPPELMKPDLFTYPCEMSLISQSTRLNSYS


Target: T1, RXFP1 receptor
Assay: cell-based or functional assay

Binder | EC50 (nM), OVCAR 5 cells (cAMP) [nM] | EMax, OVCAR 5 cells (cAMP) [%]
Ac-LEGREKVRAK(Ac)I[Aib][Aib]EG[Nle]ST[1Nal]S[Aib]RK(Ac)LK([PEG2′-PEG2′-PEG2′-γGlu-γGlu-γGlu-Stearoyl])-NH2 [peptide of SEQ ID NO: 87] | 1.63 | 71
Ac-LEGREKVRAQI[Aib][Aib]EG[Nle]STWS[Aib]RKKK([PEG2′-PEG2′-PEG2′-γGlu-γGlu-γGlu-γGlu-Stearoyl])-NH2 [peptide of SEQ ID NO: 88] | 0.11 | 74
Ac-LEGREKVRAK(Ac)I[Aib][Aib]EG[Nle]STWS[Aib]RKKK([PEG2′-PEG2′-PEG2′-γGlu-γGlu-γGlu-γGlu-Stearoyl])-NH2 [peptide of SEQ ID NO: 89] | 0.03 | 79
Ac-LEGREKVRAK(Ac)I[Aib][Aib]EG[Nle]STWS[Aib]RKK(Ac)K([PEG2′-PEG2′-PEG2′-PEG2′-γGlu-γGlu-γGlu-Stearoyl])-NH2 [peptide of SEQ ID NO: 90] | 0.07 | 89
Ac-LEGREKVRAK(Ac)I[Aib][Aib]EG[Nle]STWS[Aib]RKKK([PEG2′-PEG2′-PEG2′-PEG2′-γGlu-γGlu-γGlu-Stearoyl])-NH2 [peptide of SEQ ID NO: 91] | 0.01 | 88
Ac-LEGREKVRAQI[Aib][Aib]EG[Nle]STWS[Aib]RKKK([PEG2′-PEG2′-PEG2′-PEG2′-γGlu-γGlu-γGlu-Stearoyl])-NH2 [peptide of SEQ ID NO: 92] | 0.26 | 82
Ac-LEGREKVRAQI[Aib][Aib]EG[Nle]STWS[Aib]RKKK([PEG2′-PEG2′-PEG2′-PEG2′-PEG2′-γGlu-γGlu-γGlu-Stearoyl])-NH2 [peptide of SEQ ID NO: 93] | 0.14 | 87
Ac-LEGREKVRAK(Ac)I[Aib][Aib]EG[Nle]STWS[Aib]RKK(Ac)K([PEG2DGA-γGlu-γGlu-γGlu-Stearoyl])-NH2 [peptide of SEQ ID NO: 94] | 2.74 | 90
Ac-LEGREKVRAK(Ac)I[Aib][Aib]EG[Nle]STWS[Aib]RKK(Ac)K([PEG2DGA-PEG2DGA-γGlu-γGlu-γGlu-Stearoyl])-NH2 [peptide of SEQ ID NO: 95] | 1.03 | 87
Ac-LEGREKVRAQI[Aib][Aib]EG[Nle]STWS[Aib]RK[PEG2″]K([γGlu-γGlu-γGlu-Palmitoyl])-NH2 [peptide of SEQ ID NO: 10] | 18.9 | 96
Ac-LEGREKVRAK(Ac)I[Aib][Aib]EG[Nle]STWS[Aib]RKK(Ac)K([PEG2DGA-PEG2DGA-PEG2DGA-γGlu-γGlu-γGlu-Stearoyl])-NH2 [peptide of SEQ ID NO: 96] | 1.77 | 89
